Source: patent US20260001928A1 (CORTERIA PHARMACEUTICALS, priority 2022, published 2026)
*1 amine or outer side, *2 acyl side, *3 side chain or, on linkers, in order; H or OH if unused. Side-chain parts run from the residue outwards. [ ]: non-standard residue; d: D form. The star is where a group is joined. C18 diacid = O=C(O)CCCCCCCCCCCCCCCCC(=O)*; C16 diacid = O=C(O)CCCCCCCCCCCCCCC(=O)*; γGlu = O=C(O)[C@H](CCC(=O)[*:2])N[*:1]; Pentanoyl = CCCCC(=O)*; AEEA = NCCOCCOCC(=O)O; Butyryl = CCCC(=O)*

B1: SEQ ID NO 36 (peptide)
peptide: Butyryl-VLSLD[dV]PIKLK([γGlu-C16 diacid])KILLEQEKQKKQREQAETNKQILAQV-NH2
SMILES: CCCC(=O)N[C@H](C(=O)N[C@@H](CC(C)C)C(=O)N[C@@H](CO)C(=O)N[C@@H](CC(C)C)C(=O)N[C@@H](CC(=O)O)C(=O)N[C@@H](C(=O)N1CCC[C@H]1C(=O)N[C@H](C(=O)N[C@@H](CCCCN)C(=O)N[C@@H](CC(C)C)C(=O)N[C@@H](CCCCNC(=O)CC[C@H](NC(=O)CCCCCCCCCCCCCCC(=O)O)C(=O)O)C(=O)N[C@@H](CCCCN)C(=O)N[C@H](C(=O)N[C@@H](CC(C)C)C(=O)N[C@@H](CC(C)C)C(=O)N[C@@H](CCC(=O)O)C(=O)N[C@@H](CCC(N)=O)C(=O)N[C@@H](CCC(=O)O)C(=O)N[C@@H](CCCCN)C(=O)N[C@@H](CCC(N)=O)C(=O)N[C@@H](CCCCN)C(=O)N[C@@H](CCCCN)C(=O)N[C@@H](CCC(N)=O)C(=O)N[C@@H](CCCNC(=N)N)C(=O)N[C@@H](CCC(=O)O)C(=O)N[C@@H](CCC(N)=O)C(=O)N[C@@H](C)C(=O)N[C@@H](CCC(=O)O)C(=O)N[C@H](C(=O)N[C@@H](CC(N)=O)C(=O)N[C@@H](CCCCN)C(=O)N[C@@H](CCC(N)=O)C(=O)N[C@H](C(=O)N[C@@H](CC(C)C)C(=O)N[C@@H](C)C(=O)N[C@@H](CCC(N)=O)C(=O)N[C@H](C(N)=O)C(C)C)[C@@H](C)CC)[C@@H](C)O)[C@@H](C)CC)[C@@H](C)CC)C(C)C)C(C)C
B2: SEQ ID NO 37 (peptide)
peptide: Pentanoyl-VLSLD[dV]PIKLK([γGlu-C16 diacid])KILLEQEKQKKQREQAETNKQILAQV-NH2
SMILES: CCCCC(=O)N[C@H](C(=O)N[C@@H](CC(C)C)C(=O)N[C@@H](CO)C(=O)N[C@@H](CC(C)C)C(=O)N[C@@H](CC(=O)O)C(=O)N[C@@H](C(=O)N1CCC[C@H]1C(=O)N[C@H](C(=O)N[C@@H](CCCCN)C(=O)N[C@@H](CC(C)C)C(=O)N[C@@H](CCCCNC(=O)CC[C@H](NC(=O)CCCCCCCCCCCCCCC(=O)O)C(=O)O)C(=O)N[C@@H](CCCCN)C(=O)N[C@H](C(=O)N[C@@H](CC(C)C)C(=O)N[C@@H](CC(C)C)C(=O)N[C@@H](CCC(=O)O)C(=O)N[C@@H](CCC(N)=O)C(=O)N[C@@H](CCC(=O)O)C(=O)N[C@@H](CCCCN)C(=O)N[C@@H](CCC(N)=O)C(=O)N[C@@H](CCCCN)C(=O)N[C@@H](CCCCN)C(=O)N[C@@H](CCC(N)=O)C(=O)N[C@@H](CCCNC(=N)N)C(=O)N[C@@H](CCC(=O)O)C(=O)N[C@@H](CCC(N)=O)C(=O)N[C@@H](C)C(=O)N[C@@H](CCC(=O)O)C(=O)N[C@H](C(=O)N[C@@H](CC(N)=O)C(=O)N[C@@H](CCCCN)C(=O)N[C@@H](CCC(N)=O)C(=O)N[C@H](C(=O)N[C@@H](CC(C)C)C(=O)N[C@@H](C)C(=O)N[C@@H](CCC(N)=O)C(=O)N[C@H](C(N)=O)C(C)C)[C@@H](C)CC)[C@@H](C)O)[C@@H](C)CC)[C@@H](C)CC)C(C)C)C(C)C
B3: SEQ ID NO 103 (peptide)
peptide: Ac-IVLSLD[dV]PIKLK([AEEA-AEEA-γGlu-C18 diacid])KILLEQEKQKKQREQAETNVQILAQV-NH2
SMILES: CC[C@H](C)[C@H](NC(C)=O)C(=O)N[C@H](C(=O)N[C@@H](CC(C)C)C(=O)N[C@@H](CO)C(=O)N[C@@H](CC(C)C)C(=O)N[C@@H](CC(=O)O)C(=O)N[C@@H](C(=O)N1CCC[C@H]1C(=O)N[C@H](C(=O)N[C@@H](CCCCN)C(=O)N[C@@H](CC(C)C)C(=O)N[C@@H](CCCCNC(=O)COCCOCCNC(=O)COCCOCCNC(=O)CC[C@H](NC(=O)CCCCCCCCCCCCCCCCC(=O)O)C(=O)O)C(=O)N[C@@H](CCCCN)C(=O)N[C@H](C(=O)N[C@@H](CC(C)C)C(=O)N[C@@H](CC(C)C)C(=O)N[C@@H](CCC(=O)O)C(=O)N[C@@H](CCC(N)=O)C(=O)N[C@@H](CCC(=O)O)C(=O)N[C@@H](CCCCN)C(=O)N[C@@H](CCC(N)=O)C(=O)N[C@@H](CCCCN)C(=O)N[C@@H](CCCCN)C(=O)N[C@@H](CCC(N)=O)C(=O)N[C@@H](CCCNC(=N)N)C(=O)N[C@@H](CCC(=O)O)C(=O)N[C@@H](CCC(N)=O)C(=O)N[C@@H](C)C(=O)N[C@@H](CCC(=O)O)C(=O)N[C@H](C(=O)N[C@@H](CC(N)=O)C(=O)N[C@H](C(=O)N[C@@H](CCC(N)=O)C(=O)N[C@H](C(=O)N[C@@H](CC(C)C)C(=O)N[C@@H](C)C(=O)N[C@@H](CCC(N)=O)C(=O)N[C@H](C(N)=O)C(C)C)[C@@H](C)CC)C(C)C)[C@@H](C)O)[C@@H](C)CC)[C@@H](C)CC)C(C)C)C(C)C
B4: SEQ ID NO 48 (peptide)
peptide: Ac-IVLSLD[dV]PIKLK([γGlu-C16 diacid])KILLEQEKQKKQREQAETNVQILAQV-NH2
SMILES: CC[C@H](C)[C@H](NC(C)=O)C(=O)N[C@H](C(=O)N[C@@H](CC(C)C)C(=O)N[C@@H](CO)C(=O)N[C@@H](CC(C)C)C(=O)N[C@@H](CC(=O)O)C(=O)N[C@@H](C(=O)N1CCC[C@H]1C(=O)N[C@H](C(=O)N[C@@H](CCCCN)C(=O)N[C@@H](CC(C)C)C(=O)N[C@@H](CCCCNC(=O)CC[C@H](NC(=O)CCCCCCCCCCCCCCC(=O)O)C(=O)O)C(=O)N[C@@H](CCCCN)C(=O)N[C@H](C(=O)N[C@@H](CC(C)C)C(=O)N[C@@H](CC(C)C)C(=O)N[C@@H](CCC(=O)O)C(=O)N[C@@H](CCC(N)=O)C(=O)N[C@@H](CCC(=O)O)C(=O)N[C@@H](CCCCN)C(=O)N[C@@H](CCC(N)=O)C(=O)N[C@@H](CCCCN)C(=O)N[C@@H](CCCCN)C(=O)N[C@@H](CCC(N)=O)C(=O)N[C@@H](CCCNC(=N)N)C(=O)N[C@@H](CCC(=O)O)C(=O)N[C@@H](CCC(N)=O)C(=O)N[C@@H](C)C(=O)N[C@@H](CCC(=O)O)C(=O)N[C@H](C(=O)N[C@@H](CC(N)=O)C(=O)N[C@H](C(=O)N[C@@H](CCC(N)=O)C(=O)N[C@H](C(=O)N[C@@H](CC(C)C)C(=O)N[C@@H](C)C(=O)N[C@@H](CCC(N)=O)C(=O)N[C@H](C(N)=O)C(C)C)[C@@H](C)CC)C(C)C)[C@@H](C)O)[C@@H](C)CC)[C@@H](C)CC)C(C)C)C(C)C

Molecular target: T1, CRF1R receptor (UniProt P34998 24-415, limits assumed)
T1 sequence (looked up): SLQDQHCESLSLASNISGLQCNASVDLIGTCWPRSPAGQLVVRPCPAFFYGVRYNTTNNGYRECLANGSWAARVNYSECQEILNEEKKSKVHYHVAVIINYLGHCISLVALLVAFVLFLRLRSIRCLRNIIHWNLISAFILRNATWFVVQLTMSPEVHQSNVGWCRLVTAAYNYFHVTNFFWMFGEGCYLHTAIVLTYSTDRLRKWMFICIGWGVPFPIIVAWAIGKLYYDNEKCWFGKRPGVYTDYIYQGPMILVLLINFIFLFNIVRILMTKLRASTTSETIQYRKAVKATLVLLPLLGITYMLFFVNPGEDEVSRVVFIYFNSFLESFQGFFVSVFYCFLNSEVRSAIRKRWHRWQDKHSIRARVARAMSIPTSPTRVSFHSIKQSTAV
Test: cell-based or functional assay

Question: For B1, which “Emax (% I)” value is on record?
Answer: 22%

Question: B2 was tested. Which “Emax (% I)” value did it give?
Answer: 22%

Question: With B3 as the binder, how does the “Emax (% I)” value read?
Answer: 3%

Question: How did the “Emax (% I)” value turn out when B4 was run?
Answer: 4%

Molecular target: human corticotropin-releasing factor 2a (CRF2a receptor) (human), Q13324
Sequence (Q13324 20-411): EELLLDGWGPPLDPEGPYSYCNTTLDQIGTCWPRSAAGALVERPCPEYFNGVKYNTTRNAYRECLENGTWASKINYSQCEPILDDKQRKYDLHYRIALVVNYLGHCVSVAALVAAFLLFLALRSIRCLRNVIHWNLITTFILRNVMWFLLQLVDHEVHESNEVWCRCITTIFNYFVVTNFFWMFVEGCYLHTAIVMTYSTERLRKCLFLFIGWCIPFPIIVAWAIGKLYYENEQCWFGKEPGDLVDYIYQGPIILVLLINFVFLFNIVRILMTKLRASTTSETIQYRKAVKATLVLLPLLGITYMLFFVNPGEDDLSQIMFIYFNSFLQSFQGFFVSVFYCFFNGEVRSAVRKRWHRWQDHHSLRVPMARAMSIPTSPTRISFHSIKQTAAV
Test: cell-based or functional assay

Question: How did the EC50 [nM] (cAMP) turn out when B1 was run?
Answer: 0.14 nM

Question: B2 was tested. Which EC50 [nM] (cAMP) did it give?
Answer: 0.13 nM

Question: With B3 as the binder, how does the EC50 [nM] (cAMP) read?
Answer: 3.09 nM

Question: For B4, which EC50 [nM] (cAMP) is on record?
Answer: 1.35 nM
